The record followed here is PMC6044717 (ACS Omega, 2018).

One data set can be described thus: Solubility in water. It is filed as physicochemical. The following applies: physiological pH and temperature.
The target of data set [1] is fluorescein isothiocyanate (FITC)-conjugated GRGDSP peptide. Nature of the data set: fluorescence polarisation.
For data set [2], the target named is Human recombinant integrin α5β1 (human) (UniProt P08648). Nature of the data set: fluorescence polarisation.

Regarding `O=C(N[C@@H](Cc1ccccc1)C(=O)O)OCC1c2ccccc2-c2ccccc21` [Fmoc-F], the solubility in water entry in the data set “Solubility in water” is listed as “not readily soluble”. Consider “Human recombinant integrin α5β1 (from UniProt P08648 42-1049; P05556 21-728) (complex)”, for which the Kd in data set [1] is 0.207 µM. As to “arginine–glycine–aspartic acid tripeptide (RGD)”, in data set [2], the IC50 worked out at 26.8 µM and the Ki came to 10.8 µM.

Regarding “depsipeptide R-Glc-D (arginine–glycolic acid–aspartic acid)”, in data set [2], the IC50 stood at 1120 µM and the Ki was 454 µM.
